We go through six molecules from paper PMC10313662, “Structural insights into neurokinin 3 receptor activation by endogenous and analogue peptide agonists” (Cell Discovery, 2023).

Substitutions are numbered along the chain they refer to. Ends that are not written are not given here.

Test [1] deals with T1, NK3R V235A (human, UniProt P29371 1-465, NK3R-V235^ECL2 to alanine).
T1 sequence (looked up): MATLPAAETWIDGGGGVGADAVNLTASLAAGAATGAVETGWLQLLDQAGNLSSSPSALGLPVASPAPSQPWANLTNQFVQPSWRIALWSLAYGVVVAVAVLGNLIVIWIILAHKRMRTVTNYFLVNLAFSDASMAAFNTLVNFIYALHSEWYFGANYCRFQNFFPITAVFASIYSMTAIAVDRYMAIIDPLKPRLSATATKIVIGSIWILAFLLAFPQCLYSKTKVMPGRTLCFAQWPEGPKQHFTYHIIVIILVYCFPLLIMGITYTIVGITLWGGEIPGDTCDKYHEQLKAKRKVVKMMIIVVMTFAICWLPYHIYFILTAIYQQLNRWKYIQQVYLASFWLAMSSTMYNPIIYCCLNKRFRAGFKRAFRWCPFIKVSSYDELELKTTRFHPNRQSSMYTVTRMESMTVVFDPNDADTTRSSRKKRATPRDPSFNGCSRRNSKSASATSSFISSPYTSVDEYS

The target of the next test is T2, wild-type NK3R (Homo sapiens, UniProt P29371).
T2 construct: FLAG (DYKDDDDK); expressed in transfected cells; host or cells: HEK293T
T2 sequence (P29371 1-465): T1 sequence (looked up) with A235V
Put plainly: IP-one accumulation assay, wild-type NK3R. In kind it is cell-based.

The test system of a further test is NK1R, NK2R, NK3R. The settings on record: ref [21]; cited from earlier work.
The target of test [2] is T1, NK3R V235A. Put plainly: cell-based or functional assay.

As for “senktide (suc-(Asp6, MePhe8) SP (6–11)) (peptide)”, the IP-one accumulation, HEK293T cells; fold decrease in receptor activation against wild-type NK3R, stimulated by senktide with NK3R V235A [1] stood at 64 fold. For orientation: Emax means the greatest response seen or fitted, relative to the assay's reference. As to `CSCC[C@H](NC(=O)[C@H](CC(C)C)NC(=O)CNC(=O)[C@H](Cc1ccccc1)NC(=O)[C@H](Cc1ccccc1)NC(=O)[C@H](CCC(N)=O)NC(=O)[C@H](CCC(N)=O)NC(=O)[C@@H]1CCCN1C(=O)[C@H](CCCCN)NC(=O)[C@@H]1CCCN1C(=O)[C@@H](N)CCCNC(=N)N)C(N)=O` [SP, substance P], at wild-type NK3R, the maximal effect (Emax) turned out to be 100%. For neurokinin A [NKA], the “Preferential receptor activation/binding, in words” value in the test on NK1R, NK2R, NK3R is “preferentially bind to NK1R and NK2R, respectively”.

Regarding `CSCC[C@H](NC(=O)[C@H](CC(C)C)NC(=O)CNC(=O)[C@@H](NC(=O)[C@H](Cc1ccccc1)NC(=O)[C@H](Cc1ccccc1)NC(=O)[C@H](CC(=O)O)NC(=O)[C@H](Cc1c[nH]cn1)NC(=O)[C@H](CCSC)NC(=O)[C@@H](N)CC(=O)O)C(C)C)C(N)=O` [NKB, neurokinin B], on wild-type NK3R, the Emax came out at 100%. For the molecule DMHDFFVGLM-NH2 (peptide, UniProt Q9UHF0 81-90, looked up) [neurokinin B], the “IP-one accumulation, HEK293T cells; fold decrease in receptor activation against wild-type NK3R, stimulated by NKB” value with NK3R V235A [2] was determined as 5.2 fold. In the case of RPKPQQFFGLM-NH2 (peptide, UniProt P20366 58-68, looked up) [substance P], the “IP-one accumulation, HEK293T cells; fold decrease in receptor activation against wild-type NK3R, stimulated by SP” value with NK3R V235A [2] was found to be 30 fold.
